± gives the uncertainty stated by the source.
Test: amyloid nucleation score (Sup35N fusion, yeast selection) (log enrichment); library NNK3; higher = more nucleation; inactive = no reads after selection
In short: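 Nucleation score: DiMSum log enrichment of output over input reads, centred on the mode score of non-aggregating sequences. Only sequences with at least 100 input reads were kept. Reads came from Illumina sequencing of plasmid inserts before and after 7 days of growth at 30°C without adenine and uracil, in psi-negative yeast expressing Sup35N fused to peptides of 20 random codons after 24 hours of induction with 100 μM copper sulfate.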

Substance | amyloid nucleation score
RVGCVQYQFRRCRGWKSNKA | inactive
RVGSACNRNSLRKESCTPVQ | inactive
RVIIRNANSILGTPQSDHNQ | 0.706 ± 0.18
RVIRNQSVRTPP | inactive
RVMCRFIVRSLYAPDSHSLT | 1.54 ± 0.073
RVNHGGNLTRAKHERLFHLK | inactive
RVNRRWDSLS | inactive
RVVSSGRGNSHTAATGWLWQ | inactive
RVYGLFTLQYWYLNLYTKGR | 0.548 ± 0.36
RVYLRGRIDFKGTTFGGFEK | 1.63 ± 0.059
RWDFTSDSISRILTPLNVAK | 0.836 ± 0.13
RWDNMFLSWRYCWVYAVSFS | inactive
RWFQRWEIKTNAHLLTTLNM | inactive
RWFRTVGKFFGHIFS | 0.039 ± 0.45
RWGLYLR | inactive
RWKFYILVIYGVSASTFAQG | inactive
RWMLSDGFIMKRRTSFFNDM | inactive
RWPKIASCFSTHPWSGRYMW | inactive
RWWVMLLLVRWKRHQDTAYV | inactive
RWYWDHVRIDTYVVHSRTWR | 0.979 ± 0.13
RYCNVFVKIVALCGYKGSWS | 2.64 ± 0.06
RYCVFSLT | inactive
RYEFS | inactive

Substance | amyloid nucleation score
RYGSNTSLVANCAGPRPGLV | inactive
RYGVWLTCYVRAKLM | inactive
RYHNFLYGLGNPMG | inactive
RYLGWFLKCTACRDHSEFII | inactive
RYLSMELSQEYLFLVVSLVW | inactive
RYLVRCSFWVGKNLV | 0.722 ± 0.2
RYPGVFTTQSA | inactive
RYPLSDDPLGIVWITYMLAN | inactive
RYRPHNPDVVN | inactive
RYRTRRALHVYDEFVFEFKP | -0.057 ± 0.68
RYSDHRGIKAVGFAHCFL | inactive
RYSVARIRCTTGNVDVYV | -0.281 ± 1.2
RYVAVCSK | inactive
SAARSNPW | 0.311 ± 0.31
SAIPVWGKMRGFYLFYETHC | inactive
SAIRMPAYDYTWRGLYGDKK | inactive
SAKIL | 0.118 ± 0.23
SALLNRLSVSLYWMYGMSFM | inactive
SAVRGRCVLYGNRPLIHVRK | inactive
SAYFAVY | inactive
SAYRKTHHSCYNVLYVFMMC | 1.49 ± 0.082
SAYYYGKY | inactive
SCARSGTYIAVGIQSCCPRW | 1.5 ± 0.14

Substance | amyloid nucleation score
SCCCDFYTTRKNQRCVHRFR | inactive
SCCYAPRQPLWYASEFGVVG | inactive
SCFAVCHYESRLVYVTYSFL | inactive
SCFVCNF | 2.86 ± 0.059
SCGGCLFPDHKCCTSYARWV | inactive
SCGLFRLNMDIRVSNKNFWG | 0.991 ± 0.12
SCKVTKHGYVKEDFIGLCSY | inactive
SCLCVSW | inactive
SCLTDKRSCFC | 0.538 ± 0.34
SCLTIGWLNVVSFWI | 1.97 ± 0.082
SCNFGANYNLKMIFIYVPWV | 1.75 ± 0.08
SCNVVLRFGAMIYTL | inactive
SCSDW | inactive
SCSGAMTLWFRQPALKHIL | inactive
SCSLRYGMTGWPESKTYTAF | inactive
SCSMHFLVCEDYNRMLALRC | inactive
SCVRHPIECLKWMTLTGEVV | inactive
SCWYETMLFSLCKFKYLGLM | inactive
SDEKNKNVLGAYRVIMCVVY | inactive
SDERCLFGVQRYMHVFLRPI | inactive
SDFPRMNWGFETKCDYSTVR | inactive
SDFSVRVLDNWIHNMTGRIG | inactive
SDGLLLPRSRNVATVEMGDL | inactive

Substance | amyloid nucleation score
SDISRQYICVMYVSRLRG | inactive
SDLQVIWFMFFCSTLVRDWI | inactive
SDMVVKGERGYICILICRLR | inactive
SDRIDNFAWINFCK | 0.831 ± 0.18
SDRNSEGLTLF | inactive
SDVDDKVHKVHQQLVAILHF | 0.624 ± 0.17
SDVYWISLFVATSICCRSGA | inactive
SEDDC | inactive
SEGSNNVSCSI | inactive
SELRC | 0.114 ± 0.44
SEMELDLSFSPPYRGLPIIV | inactive
SENSRRSLSAYFLQYGLWFW | inactive
SESLMYRAKRVSTHYNFMCL | inactive
SETDFYHGFIWGIPIGALSG | inactive
SEVFFGSVPNDARDKLNTNP | inactive
SEVFNQLGTARSNMARRACA | inactive
SFCIIY | inactive
SFCYN | inactive
SFFFHSKSSGKTLNWSSDKA | 0.956 ± 0.091
SFFNFRMD | inactive
SFGMCTMYFYLNVCMAKGAR | inactive
SFICVSSDLCARARVGDSSR | inactive
SFKATV | inactive

Substance | amyloid nucleation score
SFKFMYNSFRSNGDIFSFNR | 2.35 ± 0.073
SFKQIIDRFTSSFIVIFGLR | inactive
SFLCLISIHCTDNDNGMHNC | inactive
SFLSNCSFPDRSMKAYFIYY | 0.939 ± 0.11
SFNTLIILSILFVLRQCGTR | inactive
SFRHKYYEHRPTIWDMDCDL | inactive
SFRSGLLSGRKWGHPVSSQE | inactive
SFRSNVGFEVFLIATELRFC | inactive
SFSEPAHWPSCSRFVRDCVS | inactive
SFSLYLFPSRGLAPLPTAWL | 1.86 ± 0.089
SFSVSKAWGWMYSIQRCCLC | inactive
SFTSC | inactive
SFYFWSDAYACIKARRM | inactive
SFYWMHMSAMIEYDPFTYGA | inactive
SGFDYV | inactive
SGFFMMVYRR | -0.364 ± 0.75
SGFPMVSIFESSI | inactive
SGIFKLNCHKVGLILQSPYR | 0.055 ± 0.35
SGIRDHLMRTKFDFVFKM | inactive
SGKGE | inactive
SGLDSWY | inactive
SGLSNRGCCIMSY | inactive
SGMVCVSLVG | inactive

Substance | amyloid nucleation score
SGNNMRLHTTGLVASNGLGS | inactive
SGNWTDRTVIPYHYYIDKLN | inactive
SGPRDSRLCRDSSVSGVYLS | inactive
SGRVTRWITSAMVARN | inactive
SGVKFSYNWQR | inactive
SGWYWICLKHRGQVDHPLST | inactive
SHECNLCFNVL | inactive
SHMEWFT | 1.92 ± 0.088
SHRFLDNFRFTMYTDVLGIE | inactive
SIALH | inactive
SICSEVGSSQLVVL | inactive
SIFLMSFRA | 1.41 ± 0.1
SIGISEPLIIYLFNWQLLYW | inactive
SIGTKLASCLYLKR | inactive
SIINLDLTAGHRYFYSSRSR | 2.11 ± 0.071
SIKLGFYIIIFDLWYSPMMV | inactive
SIKYSGFMWTWVNLLDPTVP | inactive
SILKDS | inactive
SILLVMP | inactive
SILRVGKERRSGYSSGEEY | inactive
SILYMVIASWYLY | inactive
SIMIVLCGKLTLNFSLRNVV | inactive
SIQKSWDASGSLIYS | inactive

Substance | amyloid nucleation score
SISRLCVRMRIYKRTVAIYL | inactive
SISTFYMLNMLKNMHLDGFG | inactive
SISTQCWSPYVAFHSWKTH | 0.416 ± 0.79
SISWRYWKSI | inactive
SIVRIFIIN | 2.27 ± 0.056
SIVSPIMRLFCFGLRAYKAV | inactive
SKAYKAYNVLRLISI | inactive
SKCSVGVLTRFR | inactive
SKDNWSRSTYTGACLR | inactive
SKLFFRNTLVSIISM | inactive
SKLKATRTRL | inactive
SKRVSALRHKIRKNCVMNFD | inactive
SKTIYWFPPYPYVQFGCHRR | inactive
SKVACTRLDCMVFKCGTS | inactive
SLAYCLLEWMES | -0.172 ± 0.48
SLCRSLGLGLLAPYRFFTWR | inactive
SLDIWGCSKGRRWSGFKI | inactive
SLDLENILSAE | inactive
SLEGTYGHLRQELTTSPNAH | 0.907 ± 0.17
SLFFSYV | inactive
SLGEKMNVASLQAVMSC | inactive
SLGNITVPAT | inactive
SLGSNEKYWERRVSSHNWTT | inactive
